PMC6702222, “Visualizing structural transitions of ligand-dependent gating of the TRPM2 channel” (Nature Communications, 2019)

Target: the molecule itself
Experiment: cryo-EM structure; TRPM2DR in digitonin, Ca2+-free buffer, incubated with 1 mM EDTA (ligand-free); refined with C4 (~4.3 A) and C2 (~4.5 A) symmetry

B1: Danio rerio (zebrafish) transient receptor potential melastatin 2 channel, full-length wild type (natural protein, UniProt A0A0R4IMY7 1-1470, looked up)
chain: MDEAALEPTLVQTLAVSTAKGGRYLSLSPSFQRCSLASWIKENIKKKECCFYVEDGREGICKCGYPKVQHCDEAIKPEDYMGEQWDKHRHVRETPTDAFGDISFGGLGQKTGKYVRVSSDTSCENLYQLMTEQWKLRSPNLLISVTGGAKNFYIKTHLKDKFRRGLIKVAQTTGAWILTGGTHAGVMKHVGMAVRDYTLSSGSMEGQIVVIGVAPWGVIHNRSTLIHPEGRFPAYYSLDEQGQGRLSCLDINHTHFLLVDDGTQGHYGVEIELRARLEKLISKLSLGNRESGVTIPVVCVVLDGGPGTLNTIYNSMLNHTPCVVLEGSGRLADVIAHVASVPVSKVTMALINRLLKRFFMQEYKNFTELQIIEWTKKIQDILRMPHLLTVFRIDEDKNYDVDVAILQALLKASRSDEHAGRHCWERQLELAVAWNRVDIAESEIFTEESQWTSSDLHPAMFSALVGDKPEFVRLLLENGVCVREFLEREETLCELYSHLPSCFFLRKLAKRVQGGKMRRGQEPLPGSRKVCLSHVSEEVRHLLGSFTQPLYIASRYKPTKDDVRLKVPSKGALDLPCSGEEWSADTVWDPGRDLFLWAVVQNNRELAEIGWEQCRDCIAAALAASKILRKLAQESGEDDSEEATEMLELANHYEKQAIGVFSECHSWDAQRAQKLLIRISPSWGRSTCLWLALEAHDKSFIAHSGVQALLTQIWCGELSVDNPHWKVLLCMIFFPLIYTGFLTFRRDEDIQRQAERTEQQKLAMESVFAGQSDGKIKRHLRGFSQKSELKPLNCSSRLMSFLKSPQVKFYWNIASYFGFLWLFAVVLMIDFQTSPSWRELLLYVWLTSLVCEEIRQLYHDFDGSGFRRKAKMYIKDLWNILDVLSIVLFIAGLICRLQASDTVFYIGKVILCIDFIIFCLRLMAIFSISRTLGPKIIIVRRMMLDLFFFMFLLSIWVVAYGVAKQGILIENEERLNWIIRGAVYEPYITIFGNFPTNIDNTLFDISSCSVNASDPLKPKCPMLNADNTPVFPEWLTIMMLCVYLLFANILLLNLLIAIFNYTFQEVQDNTDTIWKFQRYELIKEYHSRPALPPPFILLSHLILFIRGVFLRDLPQRHKNFRQELEQTEEEELLSWEAYMKDNYLASTRQDESQSVEHRIHDTAEKVGAMSELLEREQEMVSATMAKRLARLEEQVSESAKALRWIIDALKSQGCKSKVQPPLMRSKSSDRDDGDSSGQETDDEEAPHMFARQLQYPDSTVRRFPVPEEKVSWEVNFSPYQPPVYNQQDSSESDTSALDKHRNPGGRTGIRGKGALNTLGPNHILHPIFTRWRDAEHKVLEFLAVWEDAEKRWALLGGPAQPDEPLAQVLERILGKKLNEKTKTLLKAGEEVYKGYVDDSRNTDNAWVETSIITLHCDKNTPLMADLNHMVESSLSSHQPLQWREVSSDACRCSYQREALRQIAHHHNTYF
notes: TRPM2, zebrafish (Danio rerio), NCBI XP_009303266.1, full-length wild type from a codon-optimized synthetic gene; Homo-tetramer in all cryo-EM reconstructions; also called TRPM2DR; TRPM2; source: for the ADPR/Ca2+ sample reconstituted into amphipol PMAL-C8
With B1 the “stoichiometry N” value was 4.
